T1: TL1A in human blood (human, UniProt O95150 72-251, limits assumed)
T1 sequence (looked up): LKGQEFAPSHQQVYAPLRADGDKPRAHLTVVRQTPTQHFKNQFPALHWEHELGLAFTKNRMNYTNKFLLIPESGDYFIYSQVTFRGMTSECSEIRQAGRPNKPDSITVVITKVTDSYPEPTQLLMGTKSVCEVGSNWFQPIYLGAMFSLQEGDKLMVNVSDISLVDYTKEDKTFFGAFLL

T2: TNFSF6 (FasL) (human, UniProt P48023 134-281, limits assumed)
T2 sequence (looked up): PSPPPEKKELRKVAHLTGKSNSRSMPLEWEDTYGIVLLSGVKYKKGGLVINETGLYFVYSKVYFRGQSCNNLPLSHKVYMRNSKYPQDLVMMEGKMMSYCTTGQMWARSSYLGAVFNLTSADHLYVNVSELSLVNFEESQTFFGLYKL

T3: Murine TL1A (mouse, UniProt Q5UBV8 76-252, limits assumed)
T3 construct: also called mouse TL1A
T3 sequence (looked up): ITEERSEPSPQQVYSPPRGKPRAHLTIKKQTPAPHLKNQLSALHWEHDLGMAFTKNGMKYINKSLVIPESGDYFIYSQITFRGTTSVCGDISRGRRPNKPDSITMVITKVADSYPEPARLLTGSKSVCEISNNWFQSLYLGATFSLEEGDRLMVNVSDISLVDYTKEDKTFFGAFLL

T4: human TL1A (human, UniProt O95150 72-251, limits assumed)
T4 construct: also called tumor necrosis factor-like cytokine 1A; TNFSF15
T4 sequence (looked up): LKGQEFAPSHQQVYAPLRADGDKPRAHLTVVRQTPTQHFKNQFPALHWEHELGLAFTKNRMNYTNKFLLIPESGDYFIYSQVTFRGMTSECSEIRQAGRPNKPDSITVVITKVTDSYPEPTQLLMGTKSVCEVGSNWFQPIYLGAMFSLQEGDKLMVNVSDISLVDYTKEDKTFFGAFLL

T5: Cynomolgus TL1A (cynomolgus monkey, UniProt G7PRK8 72-251)
T5 construct: also called cynomolgus monkey TL1A
T5 sequence: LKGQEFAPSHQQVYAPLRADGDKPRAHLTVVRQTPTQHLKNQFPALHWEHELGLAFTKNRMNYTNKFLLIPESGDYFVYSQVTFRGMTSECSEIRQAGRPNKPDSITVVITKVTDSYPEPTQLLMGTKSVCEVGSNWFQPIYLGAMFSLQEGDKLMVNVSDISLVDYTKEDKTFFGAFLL

T6: TNFSF6 (FasL) (human, UniProt P48023 134-281, limits assumed)
T6 sequence (looked up): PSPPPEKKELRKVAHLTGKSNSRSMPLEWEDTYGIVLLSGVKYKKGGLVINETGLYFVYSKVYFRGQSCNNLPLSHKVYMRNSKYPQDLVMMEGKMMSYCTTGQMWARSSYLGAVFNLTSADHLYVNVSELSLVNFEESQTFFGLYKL

T7: cynomolgus monkey TL1A protein (cynomolgus monkey, UniProt G7PRK8 72-251)
T7 sequence: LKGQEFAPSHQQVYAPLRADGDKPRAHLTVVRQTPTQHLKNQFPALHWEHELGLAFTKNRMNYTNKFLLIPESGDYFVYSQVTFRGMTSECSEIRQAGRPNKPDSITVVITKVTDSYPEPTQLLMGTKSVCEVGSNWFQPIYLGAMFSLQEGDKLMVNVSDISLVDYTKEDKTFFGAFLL

T8: recombinant human TL1A protein (tumor necrosis factor-like cytokine 1A) (human, UniProt O95150 72-251, limits assumed)
T8 construct: Recombinant protein used in ELISA, SPR and the TF-1 caspase assay; also called TNFSF15; soluble TL1A
T8 sequence (looked up): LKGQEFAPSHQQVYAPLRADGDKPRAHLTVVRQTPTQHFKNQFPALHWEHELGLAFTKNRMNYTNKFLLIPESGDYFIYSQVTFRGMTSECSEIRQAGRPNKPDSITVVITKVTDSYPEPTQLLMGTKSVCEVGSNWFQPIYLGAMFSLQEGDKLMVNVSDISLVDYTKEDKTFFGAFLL

T9: membrane-bound human TL1A on TNFSF15/HEK293 cells (human, UniProt O95150 1-251)
T9 construct: whole, on cells; also called membrane-associated TL1A
T9 sequence (looked up): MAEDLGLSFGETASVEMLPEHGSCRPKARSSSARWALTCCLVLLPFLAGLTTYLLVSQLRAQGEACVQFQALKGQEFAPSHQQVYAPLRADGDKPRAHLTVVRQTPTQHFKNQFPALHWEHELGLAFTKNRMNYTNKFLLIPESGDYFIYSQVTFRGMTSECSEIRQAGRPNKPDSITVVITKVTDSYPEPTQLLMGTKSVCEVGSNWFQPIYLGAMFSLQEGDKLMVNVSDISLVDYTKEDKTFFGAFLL

T10: rat recombinant TL1A protein (rat, UniProt Q8K3Y7 76-252, limits assumed)
T10 construct: also called rat TL1A
T10 sequence (looked up): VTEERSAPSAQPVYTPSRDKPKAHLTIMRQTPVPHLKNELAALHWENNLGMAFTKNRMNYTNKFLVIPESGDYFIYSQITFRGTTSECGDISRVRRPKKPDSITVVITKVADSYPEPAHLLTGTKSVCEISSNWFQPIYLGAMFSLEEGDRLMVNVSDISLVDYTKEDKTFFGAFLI

T11: mouse recombinant TL1A protein (mouse, UniProt Q5UBV8 76-252, limits assumed)
T11 construct: also called mouse TL1A; murine TL1A
T11 sequence (looked up): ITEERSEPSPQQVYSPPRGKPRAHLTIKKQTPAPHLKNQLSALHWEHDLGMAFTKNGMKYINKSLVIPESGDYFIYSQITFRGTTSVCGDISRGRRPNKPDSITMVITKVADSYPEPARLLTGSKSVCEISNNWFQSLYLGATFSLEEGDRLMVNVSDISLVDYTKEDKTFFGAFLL


Key:
TL1A in human blood [1] = target: T1, TL1A in human blood; assay: cell-based or functional assay
TL1A in human blood [2] = target: T1, TL1A in human blood; assay: cell-based or functional assay; remark: listed apart in the source
TNFSF6 (FasL) [3] = target: T2, TNFSF6 (FasL); assay: not named in the table (specificity row)
Excerpt: (§1) TL1A is the only known ligand for its functional receptor DR3. TL1A is also capable of binding to Decoy receptor 3 (DcR3), a soluble TNF receptor without a transmembrane domain.

TNFSF10 = target: T12, TNFSF10 (human, UniProt P50591 114-281, limits assumed); assay: not named in the table (specificity row)
T12 construct: also called TRAIL
Excerpt: as §1

Murine TL1A = target: T3, Murine TL1A; assay: not named in the table (TL1A binding affinity row)
human TL1A [4] = target: T4, human TL1A; assay: ELISA titration on plate-coated human TL1A, unpurified culture supernatant
human TL1A [5] = target: T4, human TL1A; assay: method not given; three independent measurements, +/- standard deviation
Cynomolgus TL1A = target: T5, Cynomolgus TL1A; assay: as above
TNFSF6 (FasL) [6] = target: T6, TNFSF6 (FasL); assay: ELISA
Excerpt: as §1

TNFSF10 (TRAIL) = TNFSF10 (TRAIL) (human, UniProt P50591 114-281, limits assumed); assay: ELISA
Excerpt: as §1

TNFSF14 (LIGHT) = TNFSF14 (LIGHT) (UniProt O43557 74-240, limits assumed); assay: ELISA
Excerpt: as §1

[7] = target: T7, cynomolgus monkey TL1A protein; assay: cell-based or functional assay
[8] = target: T7, cynomolgus monkey TL1A protein; assay: ELISA on recombinant TL1A protein; cynomolgus monkey TL1A
[9] = target: T8, recombinant human TL1A protein (tumor …); assay: surface plasmon resonance (SPR), recombinant TL1A protein
[10] = target: T7, cynomolgus monkey TL1A protein; assay: as above
[11] = target: T9, membrane-bound human TL1A on …; assay: binding to TNFSF15/HEK293 cells stably transfected with human TL1A
[12] = target: T10, rat recombinant TL1A protein; assay: ELISA, titration of the antibody on recombinant rat TL1A, A450 nm against [Ab] (nM), log axis
Experimental: (§2) ELISA for each protein was performed at least three times. The data from a representative experiment are shown and are mean±SD. Abbreviations: A=absorbance, Ab=antibody, Cyno=cynomolgus, nm=nanometer, nM=nanomolar. […] Samples were assayed in triplicate, on two separate occasions. Data presented are the mean TL1A concentrations of three animals per group±SD.

[13] = target: T11, mouse recombinant TL1A protein; assay: ELISA, titration of the antibody on recombinant mouse TL1A, A450 nm against [Ab] (nM), log axis
Experimental: as §2

Chain of TNFSF10 (TRAIL) (P50591 114-281 limits assumed): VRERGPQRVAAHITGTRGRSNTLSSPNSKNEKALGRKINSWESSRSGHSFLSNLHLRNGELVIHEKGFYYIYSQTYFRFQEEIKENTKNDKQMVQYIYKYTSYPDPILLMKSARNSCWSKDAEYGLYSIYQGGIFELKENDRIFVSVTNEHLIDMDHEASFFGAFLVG
T12 sequence (P50591 114-281 limits assumed): as above
Chain of TNFSF14 (LIGHT) (O43557 74-240 limits assumed): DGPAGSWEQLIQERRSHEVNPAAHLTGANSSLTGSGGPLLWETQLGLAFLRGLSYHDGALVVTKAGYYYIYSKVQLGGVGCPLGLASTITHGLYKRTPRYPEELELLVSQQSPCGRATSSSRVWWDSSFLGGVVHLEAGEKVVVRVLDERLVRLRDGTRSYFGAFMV

Binder	% Inhibition at 1 nM Ig; interferon gamma release in human blood (TL1A in human blood [1])	% Inhibition at 10 nM Ig; interferon gamma release in human blood (TL1A in human blood [1])	IC50 values, Mean; inhibition of interferon gamma release from multiple human donors (TL1A in human blood [2])	binding result (TNFSF6 (FasL) [3])	binding result (TNFSF10)	binding result (Murine TL1A)	Kd (human TL1A [4])	Kd (human TL1A [5])	Kd (Cynomolgus TL1A)	binding result (TNFSF6 (FasL) [6])	binding result (TNFSF10 (TRAIL))	binding result (TNFSF14 (LIGHT))	IC50 of inhibition of TL1A-induced caspase activation in cycloheximide-treated TF-1 cells [7]	mean IC50 of inhibition of IFN-gamma release in monkey whole blood stimulated with immune complex, IL-12 and IL-18 [7]	EC50 [8]	Kd [9]	Kd [10]	EC50 [11]	binding result [12]	binding result [13]
A219 (antibody, V domains shown, IgG1) VH: QVQLVQSGAEVKKPGASVKVSCKASGFDIQDTYMHWVKQRPGQGLEWMGRIDPASGHTKYDPKFQVRVTITRDTSTSTVYLELSSLRSEDTAVYYCARSGGLPDVWGQGTTVTVSS VL: EIVLTQSPGTLSLSPGERATLSCRASSSVSYMYWYQQKPGQAPRPLIYATSNLASGIPDRFSGSGSGTDFTLTISRLEPEDFAVYYCQQWEGNPRTFGGGTKLEIK	59.8%	75.2%	48.6	no binding	no binding	no binding	0.05 nM	0.059 nM	0.0363 nM											
anti-TL1A antibody A219 (antibody, V domains shown, Humanized monoclonal IgG1 with a kappa light chain, designed to abolish effector functions) VH: QVQLVQSGAEVKKPGASVKVSCKASGFDIQDTYMHWVKQRPGQGLEWMGRIDPASGHTKYDPKFQVRVTITRDTSTSTVYLELSSLRSEDTAVYYCARSGGLPDVWGQGTTVTVSS VL: EIVLTQSPGTLSLSPGERATLSCRASSSVSYMYWYQQKPGQAPRPLIYATSNLASGIPDRFSGSGSGTDFTLTISRLEPEDFAVYYCQQWEGNPRTFGGGTKLEIK										no binding	no binding	no binding	0.59 nM	1.54 nM	0.47 nM	0.06 nM	0.04 nM	17.4 nM	no binding (tested: about 30 nM)	no binding (tested: about 30 nM)

Reference: patent US20260216326A1 (PROMETHEUS BIOSCIENCES, published 2026)
